Test results reported in US20200283508A1.

Assays:
human fibrinogen (human) [1] = target: human fibrinogen (human) (UniProt P02671); assay: ELISA, GST-tagged fragment on immobilized Fg; apparent affinity
human fibrinogen (human) [2] = target: human fibrinogen (human) (UniProt P02671); assay: ELISA on coated Fg; Km = protein concentration at half of the maximum; R2 0.986
human fibrinogen (human) [3] = target: human fibrinogen (human) (UniProt P02671); assay: ELISA, GST-tagged fragment on immobilized Fg
human fibrinogen (human) [4] = target: human fibrinogen (human) (UniProt P02671); assay: ELISA on coated Fg; Km = protein concentration at half of the maximum; R2 0.995
human fibrinogen (human) [5] = target: human fibrinogen (human) (UniProt P02671); assay: solid phase binding assay, Efb coated, Fg titrated; apparent KD; Efb coated on the well, fibrinogen titrated
human fibrinogen (human) [6] = target: human fibrinogen (human) (UniProt P02671); assay: competition ELISA on coated Fg; competitor 2 nM rCoa-C GST fusion
[7] = target: Fibrinogen-D fragment (human) (UniProt P02671); assay: isothermal titration calorimetry, peptide into 10 µM Fg-D, one-site model
human fibrinogen (human) [8] = target: human fibrinogen (human) (UniProt P02671); assay: ELISA on coated Fg; Km = protein concentration at half of the maximum; R2 0.991
[9] = target: Fibrinogen-D fragment (human) (UniProt P02671); assay: ITC (VP-ITC), fit box Model: OneSites beside the isotherm
[10] = target: Fibrinogen-D fragment (human) (UniProt P02671); assay: ITC (VP-ITC), peptide titrated into 10 µM Fg-D, one-site model
human fibrinogen (human) [11] = target: human fibrinogen (human) (UniProt P02671); assay: competition ELISA on coated Fg; competitor 4 nM rCoa-C GST fusion
[12] = target: Fibrinogen-D fragment (human) (UniProt P02671); assay: ITC (VP-ITC), fit box Model: OneSites beside the isotherm; unit not given
human fibrinogen (human) [13] = target: human fibrinogen (human) (UniProt P02671); assay: competition ELISA on coated Fg; competitor 2 nM rEfb-N GST fusion

Sequence of human fibrinogen (human) (P02671 20-629 limits assumed, form in doubt, chain 1 of 3): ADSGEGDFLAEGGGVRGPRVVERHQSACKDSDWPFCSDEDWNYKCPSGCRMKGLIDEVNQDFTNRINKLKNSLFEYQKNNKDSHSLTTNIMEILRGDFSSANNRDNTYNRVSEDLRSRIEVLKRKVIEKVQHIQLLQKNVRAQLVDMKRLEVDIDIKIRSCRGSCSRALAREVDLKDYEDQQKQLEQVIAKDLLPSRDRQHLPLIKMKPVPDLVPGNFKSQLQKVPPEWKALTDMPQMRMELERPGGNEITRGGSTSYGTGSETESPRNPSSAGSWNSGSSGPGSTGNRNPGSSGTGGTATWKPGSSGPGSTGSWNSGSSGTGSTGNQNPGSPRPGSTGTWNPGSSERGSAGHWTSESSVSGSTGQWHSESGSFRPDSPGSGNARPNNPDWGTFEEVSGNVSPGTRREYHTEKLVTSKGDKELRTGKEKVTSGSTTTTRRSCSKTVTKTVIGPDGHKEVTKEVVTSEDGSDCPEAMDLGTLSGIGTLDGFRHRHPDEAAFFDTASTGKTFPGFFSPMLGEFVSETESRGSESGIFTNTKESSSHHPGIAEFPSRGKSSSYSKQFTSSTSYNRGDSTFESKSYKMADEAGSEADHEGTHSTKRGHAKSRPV
Sequence of human fibrinogen (human) (P02675 31-491 limits assumed, form in doubt, chain 2 of 3, further chain): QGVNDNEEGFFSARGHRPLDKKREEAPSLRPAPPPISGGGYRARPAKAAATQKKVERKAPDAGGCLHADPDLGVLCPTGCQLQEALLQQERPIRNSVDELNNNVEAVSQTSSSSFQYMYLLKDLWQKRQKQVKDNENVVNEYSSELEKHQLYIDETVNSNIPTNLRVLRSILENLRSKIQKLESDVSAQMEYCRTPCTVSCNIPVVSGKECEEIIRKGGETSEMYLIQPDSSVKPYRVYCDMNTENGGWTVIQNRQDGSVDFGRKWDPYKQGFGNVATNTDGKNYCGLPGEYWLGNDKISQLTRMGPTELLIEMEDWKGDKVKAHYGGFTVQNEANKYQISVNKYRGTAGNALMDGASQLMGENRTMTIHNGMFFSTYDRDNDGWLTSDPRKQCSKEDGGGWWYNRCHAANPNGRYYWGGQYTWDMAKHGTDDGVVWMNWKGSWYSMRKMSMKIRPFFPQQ
Sequence of human fibrinogen (human) (P02679 27-453 limits assumed, form in doubt, chain 3 of 3, further chain): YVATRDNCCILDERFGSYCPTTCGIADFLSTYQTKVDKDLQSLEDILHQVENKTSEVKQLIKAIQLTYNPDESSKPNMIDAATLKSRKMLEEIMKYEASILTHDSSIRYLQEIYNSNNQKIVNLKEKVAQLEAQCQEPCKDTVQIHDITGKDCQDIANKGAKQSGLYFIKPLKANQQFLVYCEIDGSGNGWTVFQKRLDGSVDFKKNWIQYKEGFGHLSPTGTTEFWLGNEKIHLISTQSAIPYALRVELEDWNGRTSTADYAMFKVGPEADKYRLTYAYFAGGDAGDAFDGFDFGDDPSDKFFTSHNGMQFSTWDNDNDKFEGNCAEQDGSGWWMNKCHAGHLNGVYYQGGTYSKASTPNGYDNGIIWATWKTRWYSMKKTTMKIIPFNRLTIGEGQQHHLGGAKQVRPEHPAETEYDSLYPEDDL
Sequence of Fibrinogen-D fragment (human) (P02671 130-216 limits assumed, chain 1 of 3): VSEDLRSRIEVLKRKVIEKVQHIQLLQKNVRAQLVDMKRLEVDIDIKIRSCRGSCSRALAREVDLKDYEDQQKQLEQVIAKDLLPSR
Sequence of Fibrinogen-D fragment (human) (P02675 164-491 limits assumed, chain 2 of 3, further chain): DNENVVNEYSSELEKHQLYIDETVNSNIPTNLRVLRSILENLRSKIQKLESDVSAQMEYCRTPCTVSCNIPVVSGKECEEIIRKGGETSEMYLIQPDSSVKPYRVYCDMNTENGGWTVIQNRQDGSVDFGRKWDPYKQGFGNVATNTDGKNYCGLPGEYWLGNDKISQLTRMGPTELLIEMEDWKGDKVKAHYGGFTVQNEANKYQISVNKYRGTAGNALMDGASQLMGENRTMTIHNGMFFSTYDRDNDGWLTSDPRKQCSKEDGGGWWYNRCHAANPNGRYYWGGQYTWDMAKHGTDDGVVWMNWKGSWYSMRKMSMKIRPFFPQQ
Sequence of Fibrinogen-D fragment (human) (P02679 114-432 limits assumed, chain 3 of 3, further chain): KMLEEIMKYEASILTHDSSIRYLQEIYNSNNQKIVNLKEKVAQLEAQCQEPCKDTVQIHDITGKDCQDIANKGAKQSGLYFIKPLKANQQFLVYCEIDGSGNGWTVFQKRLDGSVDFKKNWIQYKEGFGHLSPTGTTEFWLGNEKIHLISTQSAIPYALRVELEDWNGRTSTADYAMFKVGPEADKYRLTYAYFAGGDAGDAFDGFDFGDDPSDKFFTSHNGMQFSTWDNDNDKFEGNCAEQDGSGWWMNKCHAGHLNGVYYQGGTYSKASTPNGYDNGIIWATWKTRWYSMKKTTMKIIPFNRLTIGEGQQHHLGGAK

Question: For Coa-R (Coa 506-636), which Kd (human fibrinogen (human) [1]) is on record?
Answer: The Kd was 0.8 nM.

Question: “Coa-F (Coa 311-505) (from UniProt P08515 1-218)” was tested. Which Km (human fibrinogen (human) [2]) did it give?
Answer: Its Km is 3.2 nM.

Question: “Coa-C (Coa 311-636) (from UniProt P08515 1-218)” was tested. Which EC50 (human fibrinogen (human) [3]) did it give?
Answer: The EC50 was 7.5 nM.

Question: “recombinant Coagulase, Coa (27-636) (from UniProt P08515 1-218)” was tested. Which Km (human fibrinogen (human) [4]) did it give?
Answer: Its Km is 8.9 nM.

Question: “Extracellular fibrinogen binding protein (Efb), full-length secreted form 30-165, His-tagged (from UniProt A6QG59 30-165)” was tested. Which Kd (human fibrinogen (human) [5]) did it give?
Answer: Its Kd is 1 nM.

Question: Which IC50 (read off the curve) (human fibrinogen (human) [6]) does the source give for synthetic peptide Coa-RI (Coa 506-532) here?
Answer: Its IC50 (read off the curve) is 3000 nM.

Question: What about the binding stoichiometry [7] of the same substance?
Answer: The binding stoichiometry was 0.93.

Question: Which Km (human fibrinogen (human) [8]) does the source give for “Coa-N (Coa 27-310) (from UniProt P08515 1-218)” here?
Answer: Its Km is 204 nM.

Question: What does the source list for sCoa-RV1 (Coa 610-636) (peptide)?
Answer: N (binding ratio) [9]: 0.679; N (binding ratio) [10]: 0.68; IC50 (read off the curve) (human fibrinogen (human) [11]): 10000 nM; Kd [7]: 139 nM; ΔH [12]: -39800; ΔS [12]: -101

Question: How did the IC50 (read off the curve) (human fibrinogen (human) [13]) turn out when synthetic peptide Coa-O (Coa 474-505) was run?
Answer: Its IC50 (read off the curve) is 2000 to 3000 nM.

Question: And the IC50 (read off the curve) (human fibrinogen (human) [6])?
Answer: The IC50 (read off the curve) was 9000 nM.

Question: How did the N (binding ratio) [10] turn out when sCoa-RI3 (Coa 502-528) (peptide) was run?
Answer: The N (binding ratio) was 0.9.

Question: And the IC50 (read off the curve) (human fibrinogen (human) [11])?
Answer: The IC50 (read off the curve) was 10000 nM.

Question: And the Kd [7]?
Answer: The Kd was 124 nM.
